# Numbering of substitutions follows the chain as printed. Names may count otherwise.
# T1: macaca GM-CSF (Macaca mulatta (identical in Macaca …, UniProt Q0MUT8 18-144 (Chlorocebus aethiops entry), limits assumed))
# T1 chain: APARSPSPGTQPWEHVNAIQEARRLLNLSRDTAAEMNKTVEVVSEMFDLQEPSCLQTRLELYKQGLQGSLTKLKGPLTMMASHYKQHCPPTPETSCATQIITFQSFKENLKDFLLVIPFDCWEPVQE
# B1: MSB0010601 4K21 (4K21 hVH S55K-T62S hVL N28I-H34S-N53R-H93Y) (antibody, V domains shown)
# VH: EVQLVESGGGLVQPGGSLRLSCAASGFAFSAYDMSWVRQAPGKRLELVAYISSGGKSFYYPDSVKGRFTISRDNAKNSLYLQMNSLRAEDTAVYYCTRHLGFDYWGQGTLVTVSS
# VL: DIVMTQSPLSLPVTPGEPASISCRSSQSLVNSIGNTYLSWYLQKPGQSPQLLIYKVSRRFSGVPDRFSGSGSGTDFTLKISRVEAEDVGVYYCSQSTYVPPTFGQGTKVEIK
# notes: IgG; also called optimized 4K21 antibody
# B2: MSB0010602 4K21 (4K21 hVH S55K-T62S hVL S27eY-N28I-H34S-N53R-H93Y) (antibody, V domains shown)
# VH: B1 VH
# VL: B1 VL with S32Y
# notes: IgG
# B3: humanized parental 4K21 hVH hVL + H93Y (MS100305-A) (antibody, V domains shown)
# VH: B1 VH with K56S, S63T
# VL: B1 VL with I33N, S39H, R58N
# B4: MSB0010599 4K21 (4K21 hVH S55R-T62S hVL N28I-H34S-N53R-H93Y) (antibody, V domains shown)
# VH: B1 VH with K56R
# VL: B1 VL
# notes: IgG
# B5: MSB0010603 4K21 (4K21 hVH S56V-T62S hVL N28I-H34S-N53R-H93Y) (antibody, V domains shown)
# VH: B1 VH with K56S, S57V
# VL: B1 VL
# notes: IgG
# B6: MSB0010595 4K21 (4K21 hVH S56V-T62S hVL S27eY-N28I-H34S-N53R-H93Y) (antibody, V domains shown)
# VH: B1 VH with K56S, S57V
# VL: B1 VL with S32Y
# B7: anti-GM-CSF 4K21 hIgG1K antibody (MSB0010259), recombinant chimeric 4K21 (antibody, V domains shown)
# VH: EVQLVESGGGLVKSGGSLKLSCAASGFAFSAYDMSWVRQTPEKRLELVAYISSGGSSFYYPDTVKGRFTISRDNAKNTLYLQMSSLKSEDTAMYYCTRHLGFDYWGQGTTLTVSS
# VL: DVVMTQTPLSLPVSLGDQASISCRSSQSLVNSNGNTYLHWFLQKPGQSPKLLIYKVSNRFSGVPDRFSGSGSGTDFTLKISRVEAEDLGVYFCSQSTHVPPTFGGGTKLEIK
# notes: Murine variable domains fused to human constant IgG1 heavy chain and kappa light chain domains
# B8: MSB0010600 4K21 (4K21 hVH S55R-T62S hVL S27eY-N28I-H34S-N53R-H93Y) (antibody, V domains shown)
# VH: B1 VH with K56R
# VL: B1 VL with S32Y
# Target: T2, human GM-CSF T117 (human, UniProt P04141 18-144)
# Test: cell-based or functional assay
"Emax (%), inhibition of CD11b upregulation on neutrophils after GM-CSF stimulation","IC50, inhibition of CD11b upregulation on neutrophils after GM-CSF stimulation",Binder
97%,2.03 nM,B1

# Target: T3, human GM-CSF I117 (human, UniProt P04141 18-144)
# Test: cell-based or functional assay
"Emax (%), inhibition of CD11b upregulation on neutrophils after GM-CSF stimulation","IC50, inhibition of CD11b upregulation on neutrophils after GM-CSF stimulation",Binder
79%,1.41 nM,B1

# Target: T2, human GM-CSF T117
# Test: cell-based or functional assay
# Remark: another data set of the same source
row,"IC50, inhibition of GM-CSF induced IL-8 secretion in U937 cells (65 pM GM-CSF)",Binder
1,263 pM,B1
2,177 pM,B2

# Target: T3, human GM-CSF I117
# Test: cell-based or functional assay
# Remark: another data set of the same source
row,"IC50, inhibition of GM-CSF induced IL-8 secretion in U937 cells (65 pM GM-CSF)",Binder
1,334 pM,B1
2,267 pM,B2

# Target: T1, macaca GM-CSF
# Test: cell-based or functional assay
row,"IC50, inhibition of GM-CSF induced IL-8 secretion in U937 cells (65 pM GM-CSF)",Binder
1,340 pM,B1
2,232 pM,B2

# Target: T2, human GM-CSF T117
# Test: cell-based or functional assay
# Remark: another data set of the same source
"Fold human T117/I117 (IC50, TF-1 proliferation)","Fold improvement of humanized parental 4K21 (IC50, TF-1 proliferation)","IC50, inhibition of GM-CSF induced TF-1 proliferation (32 pM GM-CSF)",Binder
3.7 fold,6 fold,154 pM,B3

# Target: T3, human GM-CSF I117
# Test: cell-based or functional assay
# Remark: another data set of the same source
"Fold improvement of humanized parental 4K21 (IC50, TF-1 proliferation)","IC50, inhibition of GM-CSF induced TF-1 proliferation (32 pM GM-CSF)",Binder
2.3 fold,42 pM,B3

# Target: T1, macaca GM-CSF
# Test: cell-based or functional assay
# Remark: another data set of the same source
"Fold improvement of humanized parental 4K21 (IC50, TF-1 proliferation)","Fold macaca/human I117 (IC50, TF-1 proliferation)","IC50, inhibition of GM-CSF induced TF-1 proliferation (32 pM GM-CSF)",Binder
5 fold,2.6 fold,111 pM,B3

# Target: T4, human GM-CSF A117 mutant (human, UniProt P04141 18-144)
# T4 construct: also called hGM-CSF A117; A117 protein
# Test: competition ELISA: antibody on coated wild-type human GM-CSF, competitor soluble human GM-CSF A117; single condition, competitor concentration not shown
row,binding result,Binder
1,binds,B4
2,binds,B1
3,binds,B2
4,binds,B5

# Target: T2, human GM-CSF T117
# Test: cell-based or functional assay
# Remark: another data set of the same source
# Target sequence in this assay (P04141 18-144 I117T limits assumed): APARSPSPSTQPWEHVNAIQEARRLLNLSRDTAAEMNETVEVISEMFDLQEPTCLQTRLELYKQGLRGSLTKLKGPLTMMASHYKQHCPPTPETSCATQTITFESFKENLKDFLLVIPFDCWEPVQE
"Fold human T117/I117 (IC50, TF-1 proliferation)","Fold improvement of 4K21 H93Y alone on T117 (IC50, TF-1 proliferation)","Fold improvement of humanized parental 4K21 on T117 (IC50, TF-1 proliferation)","IC50, inhibition of GM-CSF induced TF-1 proliferation (32 pM GM-CSF)",Binder
1 fold,9.5 fold,77 fold,18 pM,B4
0.9 fold,8.3 fold,68 fold,21 pM,B1
1.7 fold,5 fold,41 fold,34 pM,B2
0.9 fold,5.1 fold,42 fold,34 pM,B5
1.2 fold,3.7 fold,30 fold,46 pM,B6
5.8 fold,1 fold,8 fold,172 pM,B3
10.8 fold,0.1 fold,1 fold,1410 pM,B7
1.4 fold,3.6 fold,30 fold,47 pM,B8

# Target: T3, human GM-CSF I117
# Test: cell-based or functional assay
# Remark: another data set of the same source
# Target sequence in this assay (P04141 18-144 limits assumed): as the sequence (P04141 18-144 I117T limits assumed) above, with T100I counted along it
"Fold improvement of 4K21 H93Y alone on I117 (IC50, TF-1 proliferation)","Fold improvement of humanized parental 4K21 on I117 (IC50, TF-1 proliferation)","IC50, inhibition of GM-CSF induced TF-1 proliferation (32 pM GM-CSF)",Binder
1.6 fold,6.7 fold,18 pM,B4
1.3 fold,5.3 fold,23 pM,B1
1.5 fold,6 fold,20 pM,B2
0.8 fold,3.1 fold,39 pM,B5
0.8 fold,3.2 fold,37 pM,B6
1 fold,4.1 fold,30 pM,B3
0.2 fold,0.9 fold,130 pM,B7
0.9 fold,3.6 fold,33 pM,B8

# Target: T1, macaca GM-CSF
# Test: cell-based or functional assay
# Remark: another data set of the same source
"Fold improvement of 4K21 H93Y alone on macaca (IC50, TF-1 proliferation)","Fold improvement of humanized parental 4K21 on macaca (IC50, TF-1 proliferation)","Fold macaca/human I117 (IC50, TF-1 proliferation)","IC50, inhibition of GM-CSF induced TF-1 proliferation (32 pM GM-CSF)",Binder
1.8 fold,15 fold,3 fold,54 pM,B4
1.8 fold,15 fold,2.3 fold,53 pM,B1
4 fold,33 fold,1.2 fold,24 pM,B2
1.2 fold,10 fold,2.1 fold,82 pM,B5
2.2 fold,18 fold,1.2 fold,44 pM,B6
1 fold,8 fold,3.2 fold,96 pM,B3
0.1 fold,0.7 fold,9.3 fold,1220 pM,B7
2.6 fold,21 fold,1.1 fold,37 pM,B8

# Target: T2, human GM-CSF T117
# Test: KinExA, affinity in solution
# Experimental: (§1) The 4K21 and reference antibodies were incubated at concentration below the expected Kd with serial dilutions of human GM-CSF I117 or T117, or macaca GM-CSF up to equilibrium. The remaining free antibody was measured in a Kinetic exclusion assay with the KinExA® instrument. Kd was calculated by fitting the curve of the signal obtained versus the GM-CSF concentrations. The average of two experiments using different IgG concentrations was calculated.
row,Kd,Binder
1,0.005 nM,B1
2,0.174 nM,B7

# Target: T3, human GM-CSF I117
# Test: KinExA, affinity in solution
# Experimental: as §1
row,Kd,Binder
1,0.006 nM,B1
2,0.017 nM,B7

# Target: T1, macaca GM-CSF
# Test: KinExA, affinity in solution
# Experimental: as §1
row,Kd,Binder
1,0.012 nM,B1
2,0.104 nM,B7
